Measurements published in patent US20110182905A1 (published 2011).
Positions count from the first letter of the chain named. “And” between values parts separate entries of the source, which are not always exact repeats. Equal values may be shown once. Values belong to the binder of their own block, whether it stands above or below them.

Assays:
[1] = biological target: T1, purified hGM-CSF (Biomol #2514, expressed in E. coli) (human, UniProt P04141 18-144); test: cell-based or functional assay
[2] = biological target: rhesus GM-CSF (rhesus); test: cell-based or functional assay
[3] = biological target: T1, purified hGM-CSF (Biomol #2514, …); test: Biacore, antibody on mouse anti-human chip, soluble hGM-CSF (Biomol)
Text: (§1) Mouse anti-human Biacore chips (GE Healthcare) are used to immobilize each of the antibodies and soluble commercially available purified GM-CSF (Biomol) is allowed to bind. The hGM-CSF used in these experiments is the same as that used in the bioassays described below.

[4] = biological target: T1, purified hGM-CSF (Biomol #2514, …); test: cell-based or functional assay; remark: listed apart in the source
[5] = biological target: rhesus GM-CSF (rhesus); test: cell-based or functional assay; remark: listed apart in the source
[6] = biological target: T2, rhesus GM-CSF (rhesus); test: Biacore, antibody on mouse anti-human chip, soluble rhesus GM-CSF
T2 construct: also called rrGM-CSF (derived from HEK cells); recombinant rhesus GM-CSF
Text: as §1
The rhesus GM-CSF sequence is present in the public databases (e.g., GenBank Accession No NP_{—}001028121) and is used to design an expression clone as an Fc fusion protein. Protease cleavage sites are introduced to allow release of untagged rhesus GM-CSF protein.

[7] = biological target: T3, recombinant hGM-CSF derived from E. coli (Peprotech) (human, UniProt P04141 18-144); test: SPR (Biacore), antibody captured on protein G, hGM-CSF injected
T3 construct: Bought protein; also called E. coli hGM-CSF (Peprotech); E. coli rhGM-CSF
Method: (§2) To calculate affinity constants for recombinant hGM-CSF binding to anti-hGM-CSF monoclonal antibodies, surface plasmon resonance (SPR) was performed on a Biacore System™ (FIG. 2).
(§3) In the method to analyze the interaction between antibodies and antigens, the purified antibodies were captured on a sensor chip via interaction with protein G immobilized to sensor chip surface, and then recombinant antigens were injected to the sensor chip. Purified antibodies were used and recombinant hGM-CSF was used as an antigen.

[8] = biological target: T4, recombinant hGM-CSF derived from yeast (Leukine, Berlex) (human, UniProt P04141 18-144); test: as above
T4 construct: Bought protein; also called yeast hGM-CSF (Leukine); yeast rhGM-CSF
Method: as §2, §3

[9] = biological target: T5, marmoset GM-CSF (marmoset); test: Biacore, antibody on mouse anti-human chip, soluble marmoset GM-CSF
T5 construct: also called rmGM-CSF (derived from HEK cells); recombinant marmoset GM-CSF
Text: as §1
A marmoset GM-CSF expression clone (e.g., GenBank Accession No. B0KWQ4 with Methionine at position 53 and Proline at position 109) similar to the rhesus GM-CSF expression clone described above is generated.

[10] = biological target: T1, purified hGM-CSF (Biomol #2514, …); test: own Biacore KD of EV1018 set against the 7 pM cited for MOR04357-Fab from WO2006/122797
[11] = biological target: T1, purified hGM-CSF (Biomol #2514, …); test: cell-based or functional assay; remark: listed apart in the source

T1 sequence (P04141 18-144 limits assumed): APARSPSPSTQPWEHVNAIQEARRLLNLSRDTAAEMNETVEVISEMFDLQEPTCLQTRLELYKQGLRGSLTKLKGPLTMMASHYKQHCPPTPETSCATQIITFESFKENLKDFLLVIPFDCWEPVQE
T4 sequence (P04141 18-144 limits assumed): as above
T3 sequence (P04141 18-144 limits assumed): as above

B3: EV1018 (antibody, human IgG1, lambda)
heavy: not shown
light: QSALTQETSVSGTVGQKVTLSCIGNNNNIGSHAVGWYQQISRGAPKMVLFGRSPPSGVPDRFSGSKSGTTASLIISGLQPEDEADYYCSTWDSSLSAVVFGGGTKLTVLRQPKAAPSVTLFPPSSEELQANKATLVCLISDFYPGAVTVAWKADSSPVKAGVETTTPSKQSNNKYAASSYLSLTPEQWKSHRSYSCQVTHEGSTVEKTVAPTECS
notes: also called wild-type EV1018; WT EV1018
IC50 in U937 IL-8 secretion assay [1]: 0.9 ng/ml and 6 pM
IC50 in U937 IL-8 secretion assay [2]: 0.8 ng/ml and 5.6 pM
Kd [3]: 0.112 nM
times less binding than MOR04357 [10]: ~16 fold
IC50 in TF-1 proliferation assay [4]: 2.3 ng/ml and 15 pM
IC50 in TF-1 proliferation assay [5]: 1.7 ng/ml and 11 pM
Kd [6]: 0.381 nM
Kd [7]: 0.15 nM
Kd [8]: 0.23 nM
Ratio: Reference antibody (BVD2-21C11) to antibody of interest, TF-1 assay [11]: 413 ratio
Kd [9]: 2.1 nM

B4: EV1018 variant 1 (antibody, human IgG1, lambda, L234A L235A)
heavy: not shown
light: B3 light with R110G, A153G
IC50 in TF-1 proliferation assay [4]: 0.032 nM

Further lines, results first:

IC50 in U937 IL-8 secretion assay [1]: 4.7 ng/ml and 31.3 pM
IC50 in U937 IL-8 secretion assay [2]: 2.4 ng/ml and 16 pM
Kd [3]: 0.152 nM
IC50 in TF-1 proliferation assay [4]: 5.7 ng/ml and 38 pM
IC50 in TF-1 proliferation assay [5]: 2.8 ng/ml and 19 pM
Kd [6]: 0.739 nM and 0.543 nM
Kd [7]: 0.15 nM
Kd [8]: 0.36 nM
Kd [9]: 1.4 nM
B1: EV1019 (antibody, human IgG1, lambda, V domains shown)
VH: QAQLVESGGGVVKPGGSLRLSCISSKFTFSSHAMHWVRQAPGKGLEWVAVIWHDGSKKYYADSVKGRFSVSRDNSKNTLFLQMDSLRAEDTAVYFCGKEWVGGTCDSWGQGTLVIVSS
VL: QPALTQEASVSGTVGQTVTLLCSGNSSNIGSYAVGWYQQISRGAPKIVVFGKSPASGIPDRFSGSKSGTTASLLVSGLQPEDEADYYCSTWDSRLSAVLFGGGTKLTVLR
notes: Fully human IgG1 lambda; also called EV1019 Batch 1; EV1019 Batch 2

IC50 in TF-1 proliferation assay [4]: 0.0333 nM
B2: EV1018 variant 2 (antibody, human IgG1, lambda, L234A L235A, V domains shown)
VH: QVELVESGGGMVQPGMPLRLSCVASGFTFSSYGMHWVRQAPGKGLEWVALTYHHGNRKFYADSVRGRFTISRDNSKNTLYLQMTSLRAEDTAVYFCARESMGAINDNWGQGTLVIVSS
VL: QSALTQETSVSGTVGQKVTLSCIGNNNNIGSHAVGWYQQISRGAPKMVLFGRSPPSGVPDRFSGSKSGTTASLIISGLQPEDEADYYCSTWDSSLSAVVFGGGTKLTVLG
